Molecular target: T1, LukE (S. aureus, UniProt Q2FXB0 24-306)
T1 construct: also called leukotoxin E
Assay: ELISA after cis-display panning

Binder	binding result
Luk58 (designed binder, not shown: C-terminal poly-histidine tag) LPAPKNLVVSRVTEDSARLSWTAPDAAFDSFDIEYDESAHFGEAIVLTVPGSERSYDLTGLKPGTEYIVFIYGVKGGYASIPLSAIFTT	binds
Luk56 (designed binder, not shown: C-terminal poly-histidine tag) LPAPKNLVVSRVTEDSARLSWTAPDAAFDSFYIQYIELEIGEAIVLTVPGSERSYDLTGLKPGTEYGVFISGVKGGWNSYPLSAIFTT	binds
Luk43 (designed binder, not shown: C-terminal poly-histidine tag) LPAPKNLVVSRVTEDSARLSWTAPDAAFDSFLIQYQESEKVGEAIVLTVPGSERSYDLTGLKPGTEYTVSIYGVNSFGRPTLNLFSNPLSAIFTT	binds
Luk40 (designed binder, not shown: C-terminal poly-histidine tag) LPAPKNLVVSRVTEDSARLSWTAPDAAFDSFLIQYQESEKVGEAIVLTVPGSERSYDLTGLKPGTEYTVSIYGVSYAGEPLLWIYSNPLSAIFTT	binds
Luk44 (designed binder, not shown: C-terminal poly-histidine tag) LPAPKNLVVSRVTEDSARLSWTAPDAAFDSFLIQYQESEKVGEAIVLTVPGSERSYDLTGLKPGTEYTVSIYGVEWLQYYGETLFSNPLSAIFTT	binds
Luk45 (designed binder, not shown: C-terminal poly-histidine tag) LPAPKNLVVSRVTEDSARLSWTAPDAAFDSFLIQYQESEKVGEAIVLTVPGSERSYDLTGLKPGTEYTVSIYGVAWLTNAYEWEFSNPLSAIFTT	binds
Luk54 (designed binder, not shown: C-terminal poly-histidine tag) LPAPKNLVVSRVTEDSARLSWTAPDAVFDSFRIEYSEWWPIGEAIVLTVPGSERSYDLTGLKPGTEYGVVIAGVKGGGYSVPLSAIFTT	binds
Luk49 (designed binder, not shown: C-terminal poly-histidine tag) LPAPKNLVVSRVTEDSARLSWTAPDAAFDSFAIVYAEHWPAGEAIVLTVPGSERSYDLTGLKPGTEYNVTIPGVKGGKYSDPLSAIFTT	binds
Luk47 (designed binder, not shown: C-terminal poly-histidine tag) LPAPKNLVVSRVTEDSARLSWTAPDAAFDSFGIQYFETTESGEAIVLTVPGSERSYDLTGLKPGTEYVVFISGVKGGPLSWPLSAIFTT	binds
Luk53 (designed binder, not shown: C-terminal poly-histidine tag) LPAPKNLVVSRVTEDSARLSWTAPDAAFDSFTIQYFEAEANGEAIVLTVPGSERSYDLTGLKPGTEYLVFIVGVKGGHSSLPLSAIFTT	binds
Luk59 (designed binder, not shown: C-terminal poly-histidine tag) LPAPKNLVVSRVTEDSARLSWTAPDAAFDSFDISYNEFAWSGEAIVLTVPGSERSYDLTGLKPGTEYVVYIHGVKGGPTSYPLSAIFTT	binds
Luk52 (designed binder, not shown: C-terminal poly-histidine tag) LPAPKNLVVSRVTEDSARLSWTAPDAAFDSFWIQYGEAQEFGEAIVLTVPGSERSYDLTGLKPGTEYIVFITGVKGGNKSYPLSAIFTT	binds
Luk51 (designed binder, not shown: C-terminal poly-histidine tag) LPAPKNLVVSRVTEDSARLSWTAPDAAFDSFQIHYFESEPGGEAIVLTVPGSERSYDLTGLKPGTEYVVFIIGVKGGWSSLPLSAIFTT	binds
Luk55 (designed binder, not shown: C-terminal poly-histidine tag) LPAPKNLVVSRVTEDSARLSWTAPDAAFDSFWIQYFESAGEGEAIVLTVPGSERSYDLTGLKPGTEYLVFIVGVKGGVPSYPLSAIFTT	binds
Luk57 (designed binder, not shown: C-terminal poly-histidine tag) LPAPKNLVVSRVTEDSARLSWTAPDAAFNSFYIEYFEWFPAGEAIVLTVPGSERSYDLTGLKPGTEYAVIIHGVKGGQRSTPLSAIFTT	binds
Luk46 (designed binder, not shown: C-terminal poly-histidine tag) LPAPKNLVVSRVTEDSARLSWTAPDAAFDSFWIHYEESTWAGEAIVLTVPGSERSYDLTGLKPGTEYGVVIVGVKGGLKSHPLSAIFTT	binds
Luk38 (designed binder, also called anti-LukE FN3 domain Luk38; not shown: C-terminal poly-histidine tag) LPAPKNLVVSRVTEDSARLSWTAPDAAFDSFLIQYQESEKVGEAIVLTVPGSERSYDLTGLKPGTEYTVSIYGVELIYHGWLDFVFSNPLSAIFTT	binds
Luk39 (designed binder, not shown: C-terminal poly-histidine tag) LPAPKNLVVSRVTEDSARLSWTAPDAAFDSFLIQYQESEKVGEAIVLTVPGSERSYDLTGLKPGTEYTVSIYGVRVFYFSVEPTWFSNPLSAIFTT	binds
Luk41 (designed binder, not shown: C-terminal poly-histidine tag) LPAPKNLVVSRVTEDSARLSWTAPDAAFDSFLIQYQESEKVGEAIVLTVPGSERSYDLTGLKPGTEYTVSIYGVSEVPYSEYWFSNPLSAIFTT	binds
Luk42 (designed binder, not shown: C-terminal poly-histidine tag) LPAPKNLVVSRVTEDSARLSWTAPDAAFDSFLIQYQESEKVGEAIVLTVPGSERSYDLTGLKPGTEYTVSIYGVVWGYRLTTEHSNPLSAIFTT	binds

Molecular target: T2, Recombinant LukA′B toxoid complex (S. aureus, UniProt Q2FFA2 28-351; P21224 30-338)
T2 construct: also called modified LukA′B toxoid complex
T2 sequence 1: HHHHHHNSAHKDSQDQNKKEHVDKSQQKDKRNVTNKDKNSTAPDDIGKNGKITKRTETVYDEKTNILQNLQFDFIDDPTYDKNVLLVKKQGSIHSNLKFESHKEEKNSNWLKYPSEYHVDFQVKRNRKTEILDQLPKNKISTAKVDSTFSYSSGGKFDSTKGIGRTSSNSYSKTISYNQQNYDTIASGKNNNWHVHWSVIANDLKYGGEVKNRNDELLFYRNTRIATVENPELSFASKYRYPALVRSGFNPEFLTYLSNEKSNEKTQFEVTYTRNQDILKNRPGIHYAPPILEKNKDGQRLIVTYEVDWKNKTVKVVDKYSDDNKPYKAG
T2 sequence 2: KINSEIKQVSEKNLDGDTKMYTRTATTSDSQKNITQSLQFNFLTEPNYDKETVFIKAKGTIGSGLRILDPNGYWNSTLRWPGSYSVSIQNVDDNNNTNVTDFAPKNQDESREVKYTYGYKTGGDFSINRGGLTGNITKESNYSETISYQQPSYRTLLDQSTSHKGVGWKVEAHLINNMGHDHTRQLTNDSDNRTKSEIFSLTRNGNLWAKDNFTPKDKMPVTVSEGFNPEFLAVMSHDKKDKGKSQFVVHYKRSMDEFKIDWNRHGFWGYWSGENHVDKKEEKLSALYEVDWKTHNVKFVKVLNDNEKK
Assay: ELISA after cis-display panning

Binder	binding result
Luk19 (designed binder, not shown: C-terminal poly-histidine tag) LPAPKNLVVSRVTEDSARLSWYHAIHRLNHFDSFLIQYQESEKVGEAIVLTVPGSERSYDLAGLKPGTEYTVSIYGVLPDAFVSSNPLSAIFTT	binds
Luk20 (designed binder, not shown: C-terminal poly-histidine tag) LPAPKNLVVSRVTEDSARLSWYHAIHRLNHFDSFLIQYQESEKVGEAIVLTVPGSERSYDLTGLKPGTEYTVSIYGVLPDAFVSSNPLSAIFTT	binds
Luk24 (designed binder, not shown: C-terminal poly-histidine tag) LPAPKNLVVSRVTEDSARLSWTAPDAAFDSFQIGYFELWPNGEAIVLTVPGSERSYDLTGLKPGTEYEVFIRGVKGGLYSYPLSAIFTT	binds
Luk17 (designed binder, also called Luk17 anti-LukAB FN3 domain; not shown: C-terminal poly-histidine tag) LPAPKNLVVSRVTEDSARLSWTAPDAAFDSFWITYEEKFYRGEAIVLTVPGSERSYDLTGLKPGTEYKVWIVGVKGGQGSWPLSAIFTT	binds

Molecular target: T3, LukD (S. aureus, UniProt Q2FXB1 27-327)
T3 construct: also called leukotoxin D
T3 sequence: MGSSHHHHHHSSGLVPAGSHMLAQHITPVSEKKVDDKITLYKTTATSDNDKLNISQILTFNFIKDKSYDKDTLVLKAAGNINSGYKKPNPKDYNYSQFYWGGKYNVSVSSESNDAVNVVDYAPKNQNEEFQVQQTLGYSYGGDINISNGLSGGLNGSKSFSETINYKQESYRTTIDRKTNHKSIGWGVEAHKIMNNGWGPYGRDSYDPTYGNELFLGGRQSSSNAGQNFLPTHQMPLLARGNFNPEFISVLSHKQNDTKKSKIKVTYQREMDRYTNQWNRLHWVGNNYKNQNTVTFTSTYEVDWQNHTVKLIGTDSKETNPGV
Assay: ELISA after cis-display panning

Binder	binding result
Luk12 (designed binder, also called Luk12 anti-LukD FN3 domain; not shown: C-terminal poly-histidine tag) LPAPKNLVVSRVTEDSARLSWRAKPWAPKFDSFLIQYQESEKVGEAIVLTVPGSERSYDLTGLKPGTEYTVSIYGVKASEKFIESNPLSAIFTT	binds
Luk11 (designed binder, not shown: C-terminal poly-histidine tag) LPAPKNLVVSRVTEDSARLSWRAKPWAPKFDSFLIQYQESEKVGEAIVLTVPGSERSYDLTGLKPGTEYTVSIYGVSAIKPGHTSNPLSAIFTT	binds
Luk22 (designed binder, also called anti-LukD FN3 domain Luk22; not shown: C-terminal poly-histidine tag) LPAPKNLVVSRVTEDSARLSWRAKPWAPKFDSFLIQYQESEKVGEAIVLTVPGSERSYDLTGLKPGTEYAVSIYGVKASEKFIESNPLSAIFTT	binds
Luk9 (designed binder, not shown: C-terminal poly-histidine tag) LPAPKNLVVSRVTEDSARLSWDRTYSLLNYFDSFLIQYQESEKVGEAIVLTVPGSERSYDLTGLKPGTEYTVSIYGVGGQHPTYESNPLSAIFTT	binds
Luk10 (designed binder, also called anti-LukD FN3 domain Luk10; not shown: C-terminal poly-histidine tag) LPAPKNLVVSRVTEDSARLSWAASENAFVFDSFLIQYQESEKVGEAIVLTVPGSERSYDLTGLKPGTEYTVSIYGVGGKLHNQFEWLSNPLSAIFTT	binds
Luk8 (designed binder, not shown: C-terminal poly-histidine tag) LPAPKNLVVSRVTEDSARLSWKRKPWAPIFDSFLIQYQESEKVGEAIVLTVPGSERSYDLTGLKPGTEYTVSIYGVWDHAGPKYEIESNPLSAIFTT	binds
Luk21 (designed binder, not shown: C-terminal poly-histidine tag) LPAPKNLVVSRVTEDSARLSWVTKPWAEYFDSFLIQYQESEKVGEAIVLTVPGSERSYDLTGLKPGTEYTVSIYGVWDHAGPKYEIESNPLSAIFTT	binds

— US20150210756A1 (NEW YORK UNIVERSITY, published 2015)
